Data: article PMC8440498

Biological target: Aβ1-40 (human)
Experiment: ELISA

Substance “clusterin (human plasma apolipoprotein J) (from UniProt P10909 23-227; P10909 228-449) (natural protein)” has a Kd of 2 nM.
